The DeepSol protein solubility set

test: soluble on expression in E. coli; label from the status in PepcDB or PDB records

Sequence	soluble on expression in E. coli
MGSDKIHHHHHHMAGCDDSFDIIVVGAGPVGLSFAASLAYSQLKLAVVEGQALERLASPAFDGREIALTHASIGILRELGAWDVISASDKSPLQGARVLNGSSPFALCFDSPGGSAEPLGVLVPNCQIRDALFKIIRLRGHARLLCGHSVVRATNSRQGAVITLSNGRQLSARLLVAADSRFSATRNLLGIGADINRLGNSMLICRVRHERPHHQIAIEWFDHHQTVAMLPLAPGVSSLLLTLPSNEADGLLALDDELFLRELTKRCRGRLGTMSLASQRYIYPLATTWAHRFRAPSFALIGDAAIGMHPVTAHGFNIGLGGQKQLARGIETAWRDRRDIADPDMLHRYESRLRLSAAPLYHATNILVGLYSSEHPAARLARHVGLRLGQHLPFVRHGIAAMLRR	not soluble
MGSDKIHHHHHHMAHENVIEMRDITKVFGGFVANDKINLHLRKGEIHALLGENGAGKSTLMNMLAGLLEPTSGEIAVNGQVVNLDSPSKAASLGIGMVHQHFMLVEAFTVAENIILGSELTKNGVLDIAGASKEIKALSERYGLAVDPSAKVADISVGAQQRVEILKTLYRGADILIFDEPTAVLTPSEIDELMAIMKNLVKEGKSIILITHKLDEIRAVSDRVTVIRRGKSIETVEIAGATNADLAEMMVGRSVSFKTEKQASKPKEVVLSIKDLVVNENRGVPAVKNLSLDVRAGEIVGIAGIDGNGQSELIQAITGLRKVESGSIELKGDSIVGLHPRQITELSVGHVPEDRHRDGLILEMMISENIALQTYYKEPHSKNGILNYSNITSYAKKLMEEFDVRAASELVPAAALSGGNQQKAIIAREIDRDPDLLIVSQPTRGLDVGAIEYIHKRLIEERDNGKAVLVVSFELDEILNVSDRIAVIHDGKIQGIVSPETTNKQELGVLMAGGNLGKEKSDV	not soluble
MGSDKIHHHHHHMAITIQFSNYALKTDETLIQRIQFVYSPLNELFRSLHVLLNPRHHGTNIDWVIRIQNKLTKEFYENLHYFRLFYELGVSPILLCNFRYHATTIEEEIQNLKKFLDELSTAQLIEHLEKVTSDRENSFIPTLARGLEWKDFSLNKDNQLLSDLRKDASSVYQHLFSFVDWYRQEIFDETWESKDIQRKLLTEIQHQASFLKESGFKAMFNHLQIDRIHWRKDRLVIIKPFDKDIQLKDSDSIMLLPSYFIWPHLFVESFNQGIAVTYDITEQPSYYNATPENLITIFKALSDPVRLQIMNYVIDKPSTTQSLAQILVMSNSSVSRHLQILKEANLLTTTKAKKFVLYEPTQLITQLMPNFYHFFKN	not soluble
MGSDKIHHHHHHMAKFDNHPTVRWWREQSTNNPKTSTVALNSDSLRTLCLDAGADDVGFVEIYRPAIADQHAEILAVFPPTKTLISFVCCMNRESVRTPARSIANLEFHANYDHADEVARNLVKAFAQIGVRALNPSVAFPMEMDRYPDKKAWIISHKPVAVEAGLGHIGIHRNVIHPKFGNFIALGTVLIDTEVTEYAHPINYNPCIECKLCVAACPVGAIGADGSFSFSACYTHNYREFMGGFTDWTETIADSKSASDYRKKVSASESASMWQSLSFKPNYKAAYCIAACPAGEDVIAPFLSDRKAFIKDVVKPLQDKTETIYVVPGSDAENYVVKHFPNKTVKLVSSGIRPQSIQGFLFGLPLLFQRNQSEGLSAIYHFTFTGSESRRATVTIQNKMVRVQEGHLGKANISVTADSKTWLGFLGKEQNLIWALLRCKIRVSGSLKLLQAFGKCFPTCNIH	not soluble
MGSDKIHHHHHHMAKQKDGFLGEQALVLPPAIVQRMKTDPATSILYITDIGYYPKAYNHFRERETPIDQYVFIYCTEGRGWFSLDGQKHPVVPNQYFILPAGLPHAYGADEKEPWTIYWIHFGGTLAPLYCTHRTCRLTDIKPGMHSRISYRTELFEEIFRVLKMGYSLENLSYASSVFHHYLGSLRYLREYREAFSEHRPAGEEDPVNAAIHYMKENLGKKLTLAELADYTGYSSSYFSNLFLKRTGYAPLSYFNQIKIQKACQFLDFTDMKVNQVCYRVGIEDAYYFSRLFSQIMGMSPREYKKVKKG	not soluble
MGSDKIHHHHHHMALAKLPQLESVFLTDAGLETDFIFNRGIDLPYFASITLLQSSDGKIALEEYFRGFLELARRMRCGLILESATWRASPDWAEPLGLSQQELDTLNTSAIAILRDLRDEFGSTMPAVVISGCLGPRGDGYDPGKIMSEEGAEAYHRHQAEVLASAGVDQLTAITMTNVPEAIGIAKAAKSLAVPVAISFTVETDGRLPTGDRLSDALRAVDQATASTPAYYMINCAHPSHFAAVLEDGADWVNRIGGLRANASRCSHAEVDAMSELDRGNPEELAALHSELRLRFPHINVLGGCCGTDLDHITAIAEACL	not soluble
MGSDKIHHHHHHMALLDIRNLCIEIETPKGRVKIIDNVNLTLNEGEICGLVGESGSGKSLIAKVICNAIKDSWIITADRFRFDDVELLKLNPKKRRKLVGKEISMIYQEPLASLDPSRKIGQQLIQSIPSWTFKGRWWQWFGWKKRRAIELLHRVGVKDHKDIMQSYPHEVTEGEGQKIMIALAIANQPRLLIADEPTNSLESMTKVQIFRLLASMNQNQGTSILLVSNDINSISAWCDSFSVLYCGQNAESGSKENILENPHHPYTRALLHSIPDFKQPLVHKSRLSTLKGAVPLLEGMPIGCRLGPRCPFAQKECIRKPTAQRIKQHEFFCHFPINLKESQRREKEMETGPLVVNTTK	not soluble
MGSDKIHHHHHHMALPSLNGMRAFEAAARLGSIKDAAEELHLTPSAISRHIRALERNLGQDLFERGFRQITPTIRGSYYARSLSEAFEAIWRATDDVSLADGPSHGRTQRVRVLCVPAVLNLWLADRLPNFRRLHPAVELEISTSGKRANFDLAIVDEFVYKAGPALTLLIPLVLTPVCAPSLLDGPVPLRSPADLVNHHLIHECESMRWKRWLEQEGVLDTTPKSSTTLDDCTLIMREAINGAGIALADTMMAQDFLQQGKLVAPFPARHTYPAGIYLHQRRSIGNKPGTGLFQDWLLSEVEDHKRVMAIA	not soluble
MGSDKIHHHHHHMANEATQELFQVLDNTAIILQNELEISYLEAVYETGENLFQKEVLQKEELSSEKQLKLQESYESIELENFSNEEIRKGLQLALLKGMKHGIQVNHQMTPDSIGFIVAYLLEKVIQKKKNISILDPACGTANLLTTVINQLELKGDVDVHASGVDVDDLLISLALVGADLQRQKMTLLHQDGLANLLVDPVDVVISDLPVGYYPDDENAKTFELCREEGHSFAHFLFIEQGMRYTKPGGYLFFLVPDAMFGTSDFAKVDKFIKKNGHIEGIIKLPETLFKSEQARKSILILRKADVNVKPPKEVLLANLSSLTDPSVTAPILAEIENWFKSKQ	not soluble
MGSDKIHHHHHHMANSGQIRVGIGGWNFEPWEGTFYPDDLPKKRQLEFAGKELRTIEVNGTYYSSQKPATFAKWAAEVPDGFIFSLKASRFVTNRRVLSEAGESMERFLTQGLTELGDRLGPILWQFAPTKKFDAEDFEGFLKLLPEKQDGLKLRHVVEVRNPSFQVPDFVKLIEKYKVAVVLAEHADYPMIADVTGDFVYARLQKGSDEVKTCYPPKDLDRWAERLKTFAAGGEPDDLEKAAPERQPETAPRDVFAFFITSGKVNAPNGARELQKRVG	not soluble
MGSDKIHHHHHHMARANRHYIPGQVWHITHRCHKKEFLLKFARDRRRWLHWLFEAKKRFGLQVLNYAVTSNHVHLLVVDTKPEVVAKSIQLIAGRTAQEFNQRKDRKGAFWEDRYHATAIERNEHLVRCLVYIDLNMVRAGVVTHPAEWEMNGYNEIQNPPDRYAIIDRHSLFDACGFPDYGSFAEQHRKWVEDALKKGMNREGHWTESIAVGSSAFITDTQRKMGCSAKGRKLEEQVDGASFLREDAEPYHAHFTGKSEVLSPENAFFWDDYDVVPVG	not soluble
MGSDKIHHHHHHMARQFVYFMQGLTKAYPTRKVLDNVHLSFYPDAKIGVLGVNGAGKSTLLKIMAGIDKEYTGEAWVAEGARVGYLEQEPQLDPALTVRENVMLGVAKQKAILDRYNELAMNYSEETADEMTALQDQIESAGLWDLDSKVDQAMDALRCPPDDADVTKLSGGERRRVALCKLLLDQPDLLLLDEPTNHLDAESVSWLESHLRNYPGAILIVTHDRYFLDNVTSWILELDRGRGIPYEGNYSSWLVQKQKRLLQEGREDAAHQKTLEREQEWIASSPKARQAKSKARYQRYEELLAKASEKQTQTAQIIIPVAERLGNNVVDFEHLTKGFGDKLLIDDLTFKLPPGGIVGVIGPNGAGKTTLFRMITGQEKPDQGTITVGETVHLGYVDQSRDSLDAKKTVWEEISGGNELILLGKKEVNSRGYCSAFNFKGGDQQKKVGSLSGGERNRVHLAKMLKSGANVLLLDEPTNDLDVDTLRALEEALEDFAGCAVIISHDRWFLDRIATHILAFEDDSHVEWFEGNFQDYEKDKMRRLGQDAIIPHRAKYKKLTR	not soluble
